Consider 31 molecules from paper PMC6555819, “Comprehensive study of nuclear receptor DNA binding provides a revised framework for understanding receptor specificity”.

To fix the notation:
B1: NRC3_wobSeed42_DR1_G11A_o1 (dsDNA)
DNA 1: GCTATACAGGATCAAAGGCCAGAGTACGAATGTCGAGCGATTGACAGCGTAGAATGAAGG
DNA 2: CCTTCATTCTACGCTGTCAATCGCTCGACATTCGTACTCTGGCCTTTGATCCTGTATAGC
B2: NRC3_wobSeed50_DR2_C4T_o1 (dsDNA)
DNA 1: GCCTTAGTTGGTCAGGAGGTCACACACCGGATATGAGCGATTGACAGCGTAGAATGAAGG
DNA 2: CCTTCATTCTACGCTGTCAATCGCTCATATCCGGTGTGTGACCTCCTGACCAACTAAGGC
B3: NRC3_wobSeed50_DR2_T8A_o1 (dsDNA)
DNA 1: GCCCTAGATGGTCAGGAGGTCACACACCGGATATGAGCGATTGACAGCGTAGAATGAAGG
DNA 2: CCTTCATTCTACGCTGTCAATCGCTCATATCCGGTGTGTGACCTCCTGACCATCTAGGGC
B4: NRC3_wobSeed50_DR2_G18A_o1 (dsDNA)
DNA 1: GCCCTAGTTGGTCAGGAAGTCACACACCGGATATGAGCGATTGACAGCGTAGAATGAAGG
DNA 2: CCTTCATTCTACGCTGTCAATCGCTCATATCCGGTGTGTGACTTCCTGACCAACTAGGGC
B5: NRC3_wobSeed53_DR2_C13A_o1 (dsDNA)
DNA 1: GCCCTTACGGGTAACGAGGTTATAGCACGACGAGCGGCGATTGACAGCGTAGAATGAAGG
DNA 2: CCTTCATTCTACGCTGTCAATCGCCGCTCGTCGTGCTATAACCTCGTTACCCGTAAGGGC
B6: NRC3_wobSeed116_DR4_G26T_o1 (dsDNA)
DNA 1: GCAGAATGAGGTTACCAAAGATCAGTGAAACGCTTGGCGATTGACAGCGTAGAATGAAGG
DNA 2: CCTTCATTCTACGCTGTCAATCGCCAAGCGTTTCACTGATCTTTGGTAACCTCATTCTGC
B7: NRC3_wobSeed116_DR4_C15G_o1 (dsDNA)
DNA 1: GCAGAATGAGGTTAGCAAAGATCAGGGAAACGCTTGGCGATTGACAGCGTAGAATGAAGG
DNA 2: CCTTCATTCTACGCTGTCAATCGCCAAGCGTTTCCCTGATCTTTGCTAACCTCATTCTGC
B8: NRC3_wobSeed116_DR4_A6G_o1 (dsDNA)
DNA 1: GCAGAGTGAGGTTACCAAAGATCAGGGAAACGCTTGGCGATTGACAGCGTAGAATGAAGG
DNA 2: CCTTCATTCTACGCTGTCAATCGCCAAGCGTTTCCCTGATCTTTGGTAACCTCACTCTGC
B9: NRC3_wobSeed4_DR0_T25C_o1 (dsDNA)
DNA 1: GCCCTACTGGGCCAAGGTCATTGACCAGTCAAAGCAGCGATTGACAGCGTAGAATGAAGG
DNA 2: CCTTCATTCTACGCTGTCAATCGCTGCTTTGACTGGTCAATGACCTTGGCCCAGTAGGGC
B10: NRC3_wobSeed4_DR0_T8A_o1 (dsDNA)
DNA 1: GCCCTACAGGGCCAAGGTCATTGATCAGTCAAAGCAGCGATTGACAGCGTAGAATGAAGG
DNA 2: CCTTCATTCTACGCTGTCAATCGCTGCTTTGACTGATCAATGACCTTGGCCCTGTAGGGC
B11: NRC3_wobSeed136_DR5_A9C_o1 (dsDNA)
DNA 1: GCTAGCCTCGGTCATTCAGGGGCCAGTATAGAAAGCGCGATTGACAGCGTAGAATGAAGG
DNA 2: CCTTCATTCTACGCTGTCAATCGCGCTTTCTATACTGGCCCCTGAATGACCGAGGCTAGC
B12: NRC3_wobSeed70_DR2_o1 (dsDNA)
DNA 1: GCGTACCAAGGTGAATAGGTCGTTGATGAGTAGGCGGCGATTGACAGCGTAGAATGAAGG
DNA 2: CCTTCATTCTACGCTGTCAATCGCCGCCTACTCATCAACGACCTATTCACCTTGGTACGC
B13: NRC3_wobSeed5_DR0_G23C_o1 (dsDNA)
DNA 1: GCCCTTACGGGTCAAGGTTATACCACGGGTGGTACGGCGATTGACAGCGTAGAATGAAGG
DNA 2: CCTTCATTCTACGCTGTCAATCGCCGTACCACCCGTGGTATAACCTTGACCCGTAAGGGC
B14: NRC3_wobSeed130_DR5_C17G_o1 (dsDNA)
DNA 1: GCCTCGAAAGGTCGTGGTCAGGTGAGTATACCAAACGCGATTGACAGCGTAGAATGAAGG
DNA 2: CCTTCATTCTACGCTGTCAATCGCGTTTGGTATACTCACCTGACCACGACCTTTCGAGGC
B15: NRC3_wobSeed1_DR0_T12C_o1 (dsDNA)
DNA 1: GCCAAACTAGGCCAAGGTCAAAGTCGGTTTGTGCCAGCGATTGACAGCGTAGAATGAAGG
DNA 2: CCTTCATTCTACGCTGTCAATCGCTGGCACAAACCGACTTTGACCTTGGCCTAGTTTGGC
B16: NRC3_wobSeed27_DR1_C20G_o1 (dsDNA)
DNA 1: GCACTCGGAGGACAAAGGTGAGAGCTACGCCAGTGAGCGATTGACAGCGTAGAATGAAGG
DNA 2: CCTTCATTCTACGCTGTCAATCGCTCACTGGCGTAGCTCTCACCTTTGTCCTCCGAGTGC
B17: NRC3_wobSeed133_DR5_C13A_o1 (dsDNA)
DNA 1: GCCGTCCAAGGTAAATGCTAGGTCAGTGAAAGCATTGCGATTGACAGCGTAGAATGAAGG
DNA 2: CCTTCATTCTACGCTGTCAATCGCAATGCTTTCACTGACCTAGCATTTACCTTGGACGGC
B18: NRC3_wobSeed133_DR5_T12G_o1 (dsDNA)
DNA 1: GCCGTCCAAGGGCAATGCTAGGTCAGTGAAAGCATTGCGATTGACAGCGTAGAATGAAGG
DNA 2: CCTTCATTCTACGCTGTCAATCGCAATGCTTTCACTGACCTAGCATTGCCCTTGGACGGC
B19: NRC3_wobSeed65_DR2_G27T_o1 (dsDNA)
DNA 1: GCATATGTAGGTTATCGGGTCATTCATTTTGCGCATGCGATTGACAGCGTAGAATGAAGG
DNA 2: CCTTCATTCTACGCTGTCAATCGCATGCGCAAAATGAATGACCCGATAACCTACATATGC
B20: NRC3_wobSeed65_DR2_T15C_o1 (dsDNA)
DNA 1: GCATATGTAGGTTACCGGGTCATTCAGTTTGCGCATGCGATTGACAGCGTAGAATGAAGG
DNA 2: CCTTCATTCTACGCTGTCAATCGCATGCGCAAACTGAATGACCCGGTAACCTACATATGC
B21: NRC3_wobSeed88_DR3_C21T_o1 (dsDNA)
DNA 1: GCTAGCCTAGGTCATGCGGGTCAGTATAGTGTCGGCGCGATTGACAGCGTAGAATGAAGG
DNA 2: CCTTCATTCTACGCTGTCAATCGCGCCGACACTATACTGACCCGCATGACCTAGGCTAGC
B22: NRC3_wobSeed2_DR0_A20C_o1 (dsDNA)
DNA 1: GCCCTAGTTGGTCAAGGTCCCACACGCTATAGGTACGCGATTGACAGCGTAGAATGAAGG
DNA 2: CCTTCATTCTACGCTGTCAATCGCGTACCTATAGCGTGTGGGACCTTGACCAACTAGGGC
B23: NRC3_wobSeed21_DR0_C21A_o1 (dsDNA)
DNA 1: GCCGTCAAAGTTCAAGGTAAAGTAACAGAAAGCAGCGCGATTGACAGCGTAGAATGAAGG
DNA 2: CCTTCATTCTACGCTGTCAATCGCGCTGCTTTCTGTTACTTTACCTTGAACTTTGACGGC
B24: NRC3_wobSeed21_DR0_C13A_o1 (dsDNA)
DNA 1: GCCGTCAAAGTTAAAGGTAACGTAACAGAAAGCAGCGCGATTGACAGCGTAGAATGAAGG
DNA 2: CCTTCATTCTACGCTGTCAATCGCGCTGCTTTCTGTTACGTTACCTTTAACTTTGACGGC
B25: NRC3_wobSeed118_DR4_G15A_o1 (dsDNA)
DNA 1: GCTTACCAAGGTGAACTGAGGTCGTTGATCCAACTCGCGATTGACAGCGTAGAATGAAGG
DNA 2: CCTTCATTCTACGCTGTCAATCGCGAGTTGGATCAACGACCTCAGTTCACCTTGGTAAGC
B26: NRC3_wobSeed58_DR2_T26C_o1 (dsDNA)
DNA 1: GCATCGAAAGGTCGTGAGGTGAGTACACAGAAAGGCGCGATTGACAGCGTAGAATGAAGG
DNA 2: CCTTCATTCTACGCTGTCAATCGCGCCTTTCTGTGTACTCACCTCACGACCTTTCGATGC
B27: NRC3_wobSeed58_DR2_G18A_o1 (dsDNA)
DNA 1: GCATCGAAAGGTCGTGAAGTGAGTATACAGAAAGGCGCGATTGACAGCGTAGAATGAAGG
DNA 2: CCTTCATTCTACGCTGTCAATCGCGCCTTTCTGTATACTCACTTCACGACCTTTCGATGC
B28: NRC3_wobSeed124_DR5_T26C_o1 (dsDNA)
DNA 1: GCCCTACTGGGCCATTCAGAGGTCACTGATCATATGGCGATTGACAGCGTAGAATGAAGG
DNA 2: CCTTCATTCTACGCTGTCAATCGCCATATGATCAGTGACCTCTGAATGGCCCAGTAGGGC
B29: NRC3_wobSeed74_DR3_T8C_o1 (dsDNA)
DNA 1: GCTCTAGCTGGTCACGGAGGTCACACACGACGGGTAGCGATTGACAGCGTAGAATGAAGG
DNA 2: CCTTCATTCTACGCTGTCAATCGCTACCCGTCGTGTGTGACCTCCGTGACCAGCTAGAGC
B30: NRC3_wobSeed125_DR5_G22C_o1 (dsDNA)
DNA 1: GCCCTTACGGGTCACTGACAGCTTATAGCATTTGGAGCGATTGACAGCGTAGAATGAAGG
DNA 2: CCTTCATTCTACGCTGTCAATCGCTCCAAATGCTATAAGCTGTCAGTGACCCGTAAGGGC
B31: NRC3_wobSeed82_DR3_T25A_o1 (dsDNA)
DNA 1: GCATCGAAAGGTCGACGAGGTGAGAATACACCGTTTGCGATTGACAGCGTAGAATGAAGG
DNA 2: CCTTCATTCTACGCTGTCAATCGCAAACGGTGTATTCTCACCTCGTCGACCTTTCGATGC

Chain of LXRb:RXRa (P55055 whole entry, chain 1 of 2): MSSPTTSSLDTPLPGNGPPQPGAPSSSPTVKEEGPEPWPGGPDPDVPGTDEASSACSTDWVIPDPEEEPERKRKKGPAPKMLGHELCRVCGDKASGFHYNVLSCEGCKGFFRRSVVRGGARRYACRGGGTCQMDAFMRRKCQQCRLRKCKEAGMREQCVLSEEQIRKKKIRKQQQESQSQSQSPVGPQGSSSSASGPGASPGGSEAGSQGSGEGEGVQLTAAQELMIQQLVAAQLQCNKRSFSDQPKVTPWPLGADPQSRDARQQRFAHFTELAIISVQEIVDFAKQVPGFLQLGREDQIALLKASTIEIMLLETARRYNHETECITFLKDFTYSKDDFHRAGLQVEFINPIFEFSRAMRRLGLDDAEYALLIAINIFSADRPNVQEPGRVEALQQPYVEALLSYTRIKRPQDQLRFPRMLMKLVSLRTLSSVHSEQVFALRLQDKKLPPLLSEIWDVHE
Chain of LXRb:RXRa (P19793 whole entry, chain 2 of 2): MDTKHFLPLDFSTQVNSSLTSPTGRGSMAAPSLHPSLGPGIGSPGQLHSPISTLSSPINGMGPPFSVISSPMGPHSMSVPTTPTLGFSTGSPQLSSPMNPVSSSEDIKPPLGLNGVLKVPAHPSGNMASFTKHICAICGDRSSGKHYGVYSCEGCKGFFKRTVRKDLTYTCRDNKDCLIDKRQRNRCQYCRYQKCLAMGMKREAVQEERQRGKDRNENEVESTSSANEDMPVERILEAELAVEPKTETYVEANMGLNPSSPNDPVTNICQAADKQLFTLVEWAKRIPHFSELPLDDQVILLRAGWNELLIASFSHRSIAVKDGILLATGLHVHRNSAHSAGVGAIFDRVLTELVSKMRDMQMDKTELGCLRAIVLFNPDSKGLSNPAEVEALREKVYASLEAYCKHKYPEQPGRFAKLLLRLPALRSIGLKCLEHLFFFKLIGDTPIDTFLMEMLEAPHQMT

This data set concerns the target LXRb:RXRa (Homo sapiens, UniProt P55055;P19793 full;full). The data set can be described thus: no ligand; PBM; 270 nM : 90 nM RXRa; PBS pH 7.4, 2% milk, 0.02% Triton X-100, 1 mM DTT, BSA, 0.4 mg/ml salmon testes DNA. To be noted: tags: His kept;His cleaved; copies: 1;1; label: surface-attached array probe. The gist of the method: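 For binding z-scores, the reference was random background probes on custom Agilent 4×180K protein-binding microarrays. These arrays were incubated 1 h with ligand-free nuclear receptor dimers in PBS pH 7.4, 2% milk, 0.02% Triton X-100, 1 mM DTT, 0.2 mg/mL BSA and 0.4 mg/ml salmon testes DNA. Fluorescence was scanned after antibody detection of each partner (one per run) and regression-normalized.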
On to B1, for which the binding signal is 0.47 PBM z-score against 500 random probes. To B2 belongs 3.43 PBM z-score against 500 random probes; to B3, 3.37 PBM z-score against 500 random probes. To B4 belongs 0.38 PBM z-score against 500 random probes; to B5, 0.41 PBM z-score against 500 random probes. The result for B6 reads 3.35 PBM z-score against 500 random probes; that for B7, 0.41 PBM z-score against 500 random probes. For the molecule B8, the binding signal was 3.28 PBM z-score against 500 random probes. For B9, the binding signal is 3.2 PBM z-score against 500 random probes. Consider B10, for which the binding signal was 3.02 PBM z-score against 500 random probes.

Consider B11, for which the binding signal was 0.42 PBM z-score against 500 random probes. The result for B12 reads 0.5 PBM z-score against 500 random probes; that for B13, 3.06 PBM z-score against 500 random probes.

In the case of B14, the binding signal was 3.33 PBM z-score against 500 random probes.

B15: the binding signal was 3.41 PBM z-score against 500 random probes. To B16 belongs 0.32 PBM z-score against 500 random probes; to B17, 0.46 PBM z-score against 500 random probes; to B18, 0.44 PBM z-score against 500 random probes. The result for B19 reads 3.32 PBM z-score against 500 random probes. As to B20, the binding signal is 3.17 PBM z-score against 500 random probes. For the molecule B21, the binding signal is 3 PBM z-score against 500 random probes. As for B22, the binding signal was 0.48 PBM z-score against 500 random probes. The result for B23 reads 3.04 PBM z-score against 500 random probes.

B24: the binding signal is 0.26 PBM z-score against 500 random probes. On to B25, for which the binding signal is 3.08 PBM z-score against 500 random probes. To B26 belongs 3.15 PBM z-score against 500 random probes; to B27, 3.09 PBM z-score against 500 random probes; to B28, 3.39 PBM z-score against 500 random probes. To B29 belongs 3.16 PBM z-score against 500 random probes; to B30, 3.19 PBM z-score against 500 random probes. B31: the binding signal was 3.13 PBM z-score against 500 random probes.
